Assay results from US20260265403A1 (TJ BIOPHARMA SHANGHAI, published 2026).
Substitutions are numbered along the chain they refer to. One block for each binder: values may come before it.

Assays:
[1] = molecular target: T1, human CD24 on cells (human, UniProt P25063 27-59); assay: cell-based or functional assay
T1 chain (looked up): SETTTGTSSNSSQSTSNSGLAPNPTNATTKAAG

[2] = molecular target: T2, CD24-his protein (human, UniProt P25063 27-59, posttranslational modification (purified from mammalian cell)); assay: standard ELISA on CD24-his
T2 construct: Purified from mammalian (HEK293) cells; also called soluble recombinant CD24 protein; human HEK293 purified CD24-his protein; not shown: His tag
T2 chain (looked up): T1 chain (looked up)
From the text: (§1) Since human CD24 contains only 33 core amino acids, and is heavily glycosylated, two different proteins were used to perform protein binding assay. CD24-his protein was purified from mammalian cell and as modified by posttranslational modification. While CD24-GST was purified from E. coli with no PTM.

[3] = molecular target: T1, human CD24 on cells; assay: flow cytometry (GMFI), A549 cells
Protocol: (§2) Antibodies were 4-fold serially diluted from 40 μg/mL and incubated with MCF7 cells (panel A), OVCAR3 cells (panel B), A549 cells (panel C), and NALM6 cells (panel D) cells for 30 minutes at 4° C. in FACS buffer. Then, PE conjugated-anti-human IgG (H+L) antibody was added and incubated for another 30 minutes. After washing, geometric mean fluorescence intensity (GMFI) of PE was evaluated by FACS.
(§3) Here we used four CD24 highly expressed tumor cell lines MCF7 (breast cancer), OVCAR3 (ovarian cancer), A549 (lung cancer), and NALM6 ([…]).

[4] = molecular target: T1, human CD24 on cells; assay: flow cytometry (GMFI), MCF-7 cells
Protocol: as §2, §3

[5] = molecular target: T1, human CD24 on cells; assay: flow cytometry (GMFI), NALM6 cells
Protocol: as §2, §3

[6] = molecular target: T1, human CD24 on cells; assay: flow cytometry (GMFI), OVCAR3 cells
Protocol: as §2, §3

[7] = molecular target: T1, human CD24 on cells; assay: flow cytometry on MCF7, OVCAR3, A549 and NALM6 cells
Protocol: as §2, §3

[8] = molecular target: T2, CD24-his protein; assay: ELISA, CD24-his (HEK 293), unit taken from the concentration axis
From the text: as §1

[9] = molecular target: T1, human CD24 on cells; assay: flow cytometry (GMFI), MCF-7 cells
[10] = molecular target: T1, human CD24 on cells; assay: flow cytometry (GMFI), NALM6 cells
[11] = molecular target: T2, CD24-his protein; assay: ELISA, CD24-his(HEK 293) [Cont'd) B]
[12] = molecular target: T3, CD24-his-GST(Ecoli); assay: ELISA, CD24-his-GST(Ecoli) [Cont'd) B]
T3 construct: also called CD24-GST
T3 chain: T1 chain (looked up)

[13] = molecular target: T1, human CD24 on cells; assay: flow cytometry (GMFI), MCF-7 cells [Cont'd) C]
[14] = molecular target: T1, human CD24 on cells; assay: flow cytometry (GMFI), MC38-hCD24 cells [Cont'd) C]
[15] = molecular target: T4, Human CD24 (human, UniProt P25063 27-59, limits assumed); assay: Biacore (SPR); antibody as ligand, human CD24 as analyte
T4 chain (looked up): T1 chain (looked up)

[16] = molecular target: T1, human CD24 on cells; assay: Siglec10-PE competition assay (GMFI); competitor Siglec-10; CD24 source not named on the sheet [Cont'd) D]

EC50 of macrophage mediated phagocytosis against multiple tumor cells [1]: 1.97 to 2.45 nM | EC50 [2]: 10.1 µg/mL | EC50 (read off the curve) [3]: ~0.2 µg/mL | EC50 (read off the curve) [4]: ~0.2 µg/mL | EC50 (read off the curve) [5]: ~0.3 µg/mL | EC50 (read off the curve) [6]: ~0.3 µg/mL | EC50 [7]: 1.2 to 2.11 nM | EC50 [8]: 0.0101 µg/mL
B1: 4451HM15-IgG1-3A (antibody, V domains shown)
VH: QVQLVQSGAEVKKPGASVKVSCKASGYDFTGYHMGWVRQAPGQGLEWMGEINPITSDKYFNQKFKSRVTMTRDTSISTAYMELSRLRSDDTAVYYCARRDYGTSLDYWGQGTTVTVSS
VL: DIQLTQSPSFLSASVGDRVTITCRASASISKYLAWYQQKPGKAPKLLIYAGSTLHSGIPSRFRGSGSGTEFTLTISSLQPEDFATYYCQQHNEYPITFGQGTKLEIKR
notes: Produced in a CHO-based system

EC50 (read off the curve) [9]: ~0.2 µg/mL | EC50 (read off the curve) [10]: ~0.3 µg/mL | EC50 (read off the curve) [11]: ~0.02 µg/mL | EC50 (read off the curve) [12]: ~0.06 µg/mL | EC50 (read off the curve) [13]: ~0.2 µg/mL | EC50 (read off the curve) [14]: ~0.2 µg/mL | Kd [15]: 15.5 nM | koff [15]: 0.0175 s⁻¹ | kon [15]: 1.13e+06 M⁻¹ s⁻¹ | IC50 (read off the curve) [16]: ~1 µg/mL
B2: 4451H-IgG4 (antibody, V domains shown)
VH: B1 VH with G35N, Y59T
VL: DIQLTQSPSFLSASVGDRVTITCRASKSISKYLAWYQQKPGKAPKLLIYAGSTLHSGIPSRFRGSGSGTEFTLTISSLQPEDFATYYCQQHNEYPITFGQGTKLEIK
notes: also called VH1+VL3 fused with human IgG4 Fc
